Data: PMC12316933

Target: CA09 N1 sNAp (stabilized recombinant N1 neuraminidase head of H1N1 A/California/07/2009) (Influenza A virus H1N1 A/California/07/2009)
Assay: cryo-EM structure

“CA09 N1 sNAp (stabilized recombinant N1 neuraminidase head of H1N1 A/California/07/2009) (enzyme)” was tested. Which stoichiometry N did it give?
The stoichiometry N was 4.
